Results as given in paper PMC9736959, “Enzyme-Linked Aptamer Kits for Rapid, Visual, and Sensitive Determination of Lactoferrin in Dairy Products”.

Target: lactoferrin (Lf) (bovine (from bovine milk), UniProt P24627 20-708)
Assay: competition (indirect competitive enzyme-linked aptamer assay against immobilized cDNA S2); linear 25-500 nM Lf, LOD 14.01 nM (not a Kd); aptamer as SA-HRP conjugate; PBS pH 7.2, about 25 °C; Lf and recognition probe 5 min, then 30 min on cDNA-coated plate; PBS-T (0.05% Tween-20) washes
Conditions: protein: commercial; label: biotin; coupled to SA-HRP in the recognition probe; capture strand S2 is not an exact complement (fewer G opposite the C run)

Sequence of lactoferrin (Lf) (P24627 20-708): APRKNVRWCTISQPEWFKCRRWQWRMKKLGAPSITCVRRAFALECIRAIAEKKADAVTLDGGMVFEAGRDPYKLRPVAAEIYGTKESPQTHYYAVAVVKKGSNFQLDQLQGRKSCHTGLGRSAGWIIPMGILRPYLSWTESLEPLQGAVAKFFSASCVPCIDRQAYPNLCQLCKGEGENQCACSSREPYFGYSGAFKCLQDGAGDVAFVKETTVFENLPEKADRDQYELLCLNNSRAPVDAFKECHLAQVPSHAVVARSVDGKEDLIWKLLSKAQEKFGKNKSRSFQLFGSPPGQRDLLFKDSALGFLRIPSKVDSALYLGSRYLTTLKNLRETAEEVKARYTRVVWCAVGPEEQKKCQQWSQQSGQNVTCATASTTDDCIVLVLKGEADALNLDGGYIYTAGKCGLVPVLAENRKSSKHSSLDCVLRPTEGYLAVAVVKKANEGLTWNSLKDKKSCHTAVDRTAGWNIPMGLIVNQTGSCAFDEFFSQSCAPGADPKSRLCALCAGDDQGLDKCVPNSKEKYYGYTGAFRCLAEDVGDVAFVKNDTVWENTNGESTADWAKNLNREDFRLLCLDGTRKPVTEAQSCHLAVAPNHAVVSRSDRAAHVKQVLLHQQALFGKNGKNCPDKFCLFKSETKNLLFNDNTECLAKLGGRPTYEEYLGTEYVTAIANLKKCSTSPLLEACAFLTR

TGGTGCTGCCCCCCTAGTCTCCGGCTGCTTCTTGG (ssDNA, 5' biotin (so in the source)) [Lf aptamer (biotin-Apt)]: binds.
